From paper PMC10786891, “Massively parallel profiling of RNA-targeting CRISPR-Cas13d”
Positions count from the first letter of the chain named. Names may count otherwise.

T1: EsCas13d, nuclease-dead (Eubacterium siraeum, UniProt B0MS50, R295A;H300A;R849A;H854A)
T1 sequence: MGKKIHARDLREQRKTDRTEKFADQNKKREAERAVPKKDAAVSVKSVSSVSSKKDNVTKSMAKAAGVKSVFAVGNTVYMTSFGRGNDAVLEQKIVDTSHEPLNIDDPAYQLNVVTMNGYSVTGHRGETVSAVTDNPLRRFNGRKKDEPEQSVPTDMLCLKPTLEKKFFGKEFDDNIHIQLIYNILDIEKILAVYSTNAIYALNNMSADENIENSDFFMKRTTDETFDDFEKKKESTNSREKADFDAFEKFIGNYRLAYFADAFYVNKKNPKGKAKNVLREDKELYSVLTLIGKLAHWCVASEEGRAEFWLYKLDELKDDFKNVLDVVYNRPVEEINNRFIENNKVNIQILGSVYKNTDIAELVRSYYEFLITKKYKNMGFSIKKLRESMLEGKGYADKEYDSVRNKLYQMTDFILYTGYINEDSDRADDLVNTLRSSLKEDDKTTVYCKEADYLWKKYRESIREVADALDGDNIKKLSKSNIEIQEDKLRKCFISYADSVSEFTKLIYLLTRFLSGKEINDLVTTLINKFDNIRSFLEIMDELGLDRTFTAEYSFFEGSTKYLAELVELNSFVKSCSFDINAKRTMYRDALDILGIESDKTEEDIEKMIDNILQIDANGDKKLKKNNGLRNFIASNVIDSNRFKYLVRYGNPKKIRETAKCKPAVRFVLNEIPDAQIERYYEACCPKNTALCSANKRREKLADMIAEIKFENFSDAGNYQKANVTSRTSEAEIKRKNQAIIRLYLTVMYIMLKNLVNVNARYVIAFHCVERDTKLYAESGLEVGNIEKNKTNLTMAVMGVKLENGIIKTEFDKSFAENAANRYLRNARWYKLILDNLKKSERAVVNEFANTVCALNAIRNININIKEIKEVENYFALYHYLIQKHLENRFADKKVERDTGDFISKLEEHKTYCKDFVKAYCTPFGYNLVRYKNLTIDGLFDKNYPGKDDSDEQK

B1: target 1 MT 5'PFS CUG 3'PFS ACC (mixed)
RNA 1: CACCCGUGCAAAAAUGCAGGGGUCUAAAACUGAGCGGAUAACCUCUCUAUGG
RNA 2: GGGAAUGGAUCCACAUCUACGAAUUCCUGCCAUAGAGAGGUUAUCCGCUCAACCAGAUCGGAAGAGCACACGU
B2: target 1 MT 5'PFS CAU 3'PFS UUA (mixed)
RNA 1: B1 RNA 1
RNA 2: B1 RNA 2 with U28A, G29U, A52U, C53U, C54A
B3: target 1 MT 5'PFS AAC 3'PFS AGA (mixed)
RNA 1: B1 RNA 1
RNA 2: B1 RNA 2 with C27A, U28A, G29C, C53G, C54A
B4: target 1 MT 5'PFS AAC 3'PFS AGG (mixed)
RNA 1: B1 RNA 1
RNA 2: B1 RNA 2 with C27A, U28A, G29C, C53G, C54G
B5: target 1 MT 5'PFS UAA 3'PFS UUG (mixed)
RNA 1: B1 RNA 1
RNA 2: B1 RNA 2 with C27U, U28A, G29A, A52U, C53U, C54G
B6: target 1 MT 5'PFS UCG 3'PFS AUA (mixed)
RNA 1: B1 RNA 1
RNA 2: B1 RNA 2 with C27U, U28C, C53U, C54A
B7: target 1 MT 5'PFS GGA 3'PFS AAU (mixed)
RNA 1: B1 RNA 1
RNA 2: B1 RNA 2 with C27G, U28G, G29A, C53A, C54U
B8: target 1 MT 5'PFS GGA 3'PFS AAA (mixed)
RNA 1: B1 RNA 1
RNA 2: B1 RNA 2 with C27G, U28G, G29A, C53A, C54A
B9: target 1 C2U,U11G (mixed)
RNA 1: B1 RNA 1
RNA 2: B1 RNA 2 with C27G, G29A, U41G, C50U, A52C, C54G
B10: target 1 MT 5'PFS CUG 3'PFS ACA (mixed)
RNA 1: B1 RNA 1
RNA 2: B1 RNA 2 with C54A
B11: target 1 MT 5'PFS AAA 3'PFS CGU (mixed)
RNA 1: B1 RNA 1
RNA 2: B1 RNA 2 with C27A, U28A, G29A, A52C, C53G, C54U
B12: target 1 MT 5'PFS CCC 3'PFS UGC (mixed)
RNA 1: B1 RNA 1
RNA 2: B1 RNA 2 with U28C, G29C, A52U, C53G
B13: target 1 MT 5'PFS GUU 3'PFS GGG (mixed)
RNA 1: B1 RNA 1
RNA 2: B1 RNA 2 with C27G, G29U, A52G, C53G, C54G
B14: target 1 MT 5'PFS GUU 3'PFS AGA (mixed)
RNA 1: B1 RNA 1
RNA 2: B1 RNA 2 with C27G, G29U, C53G, C54A
B15: target 1 MT 5'PFS UGU 3'PFS CAU (mixed)
RNA 1: B1 RNA 1
RNA 2: B1 RNA 2 with C27U, U28G, G29U, A52C, C53A, C54U
B16: target 1 MT 5'PFS GGA 3'PFS AAG (mixed)
RNA 1: B1 RNA 1
RNA 2: B1 RNA 2 with C27G, U28G, G29A, C53A, C54G
B17: target 1 MT 5'PFS AAA 3'PFS CGA (mixed)
RNA 1: B1 RNA 1
RNA 2: B1 RNA 2 with C27A, U28A, G29A, A52C, C53G, C54A
B18: target 1 MT 5'PFS GAC 3'PFS UGA (mixed)
RNA 1: B1 RNA 1
RNA 2: B1 RNA 2 with C27G, U28A, G29C, A52U, C53G, C54A
B19: target 1 insG 3' of 9,insU 3' of 9 (mixed)
RNA 1: B1 RNA 1
RNA 2: GGGAAUGGAUCCACAUCUACGAAUUCGUACCAUAGAGAGGUUAGUUCCGCUCACCGAGAUCGGAAGAGCACACGU
B20: target 1 MT 5'PFS GGA 3'PFS CCG (mixed)
RNA 1: B1 RNA 1
RNA 2: B1 RNA 2 with C27G, U28G, G29A, A52C, C54G
B21: target 1 MT 5'PFS CCG 3'PFS AAA (mixed)
RNA 1: B1 RNA 1
RNA 2: B1 RNA 2 with U28C, C53A, C54A
B22: target 1 MT 5'PFS UCA 3'PFS AUC (mixed)
RNA 1: B1 RNA 1
RNA 2: B1 RNA 2 with C27U, U28C, G29A, C53U
B23: target 1 MT 5'PFS UGU 3'PFS UAA (mixed)
RNA 1: B1 RNA 1
RNA 2: B1 RNA 2 with C27U, U28G, G29U, A52U, C53A, C54A
B24: target 1 MT 5'PFS GGG 3'PFS GUG (mixed)
RNA 1: B1 RNA 1
RNA 2: B1 RNA 2 with C27G, U28G, A52G, C53U, C54G
B25: target 1 MT 5'PFS UAA 3'PFS UUA (mixed)
RNA 1: B1 RNA 1
RNA 2: B1 RNA 2 with C27U, U28A, G29A, A52U, C53U, C54A
B26: target 1 MT 5'PFS UUG 3'PFS UCU (mixed)
RNA 1: B1 RNA 1
RNA 2: B1 RNA 2 with C27U, A52U, C54U
B27: target 1 MT 5'PFS CUC 3'PFS CAU (mixed)
RNA 1: B1 RNA 1
RNA 2: B1 RNA 2 with G29C, A52C, C53A, C54U
B28: target 1 MT 5'PFS UAA 3'PFS UUU (mixed)
RNA 1: B1 RNA 1
RNA 2: B1 RNA 2 with C27U, U28A, G29A, A52U, C53U, C54U
B29: target 1 MT 5'PFS GUU 3'PFS AGC (mixed)
RNA 1: B1 RNA 1
RNA 2: B1 RNA 2 with C27G, G29U, C53G
B30: target 1 MT 5'PFS GUU 3'PFS AGG (mixed)
RNA 1: B1 RNA 1
RNA 2: B1 RNA 2 with C27G, G29U, C53G, C54G
B31: target 1 MT 5'PFS GUU 3'PFS AGU (mixed)
RNA 1: B1 RNA 1
RNA 2: B1 RNA 2 with C27G, G29U, C53G, C54U
B32: target 1 MT 5'PFS GGA 3'PFS AAC (mixed)
RNA 1: B1 RNA 1
RNA 2: B1 RNA 2 with C27G, U28G, G29A, C53A
B33: target 1 MT 5'PFS UAA 3'PFS UUC (mixed)
RNA 1: B1 RNA 1
RNA 2: B1 RNA 2 with C27U, U28A, G29A, A52U, C53U
B34: target 1 insG 3' of 14,insA 3' of 7 (mixed)
RNA 1: B1 RNA 1
RNA 2: B19 RNA 2 with U41G, A43U, G44A, U46C, C47A

Each binder was assayed against T1, EsCas13d, nuclease-dead (assay: crRNA (strand 1, pre-loaded); Mg2+; 40 mM Tris-HCl pH 7.5, 150 mM NaCl, 6 mM MgCl2, 1 mM DTT, 0.1% Tween-20, 0.2 mg/ml BSA; 25 C; 10 min per concentration, then washed). Conditions: tags: His6-TwinStrep-SUMO cleaved; N-terminal SNAP kept (SNAP-Surface 488); label: 3' end held by stalled T7 RNA polymerase.

Question: B1 was tested. Which Kd did it give?
Answer: 6.1 ± 1.45 nM

Question: With B2 as the binder, how does the Kd read?
Answer: ~70 nM

Question: With B3 as the binder, how does the Kd read?
Answer: ~27 nM

Question: With B4 as the binder, how does the Kd read?
Answer: 59 ± 19 nM

Question: Which Kd does the source give for B5 here?
Answer: 16.8 ± 2.95 nM

Question: For B6, which Kd is on record?
Answer: 37.5 ± 10.5 nM

Question: With B7 as the binder, how does the Kd read?
Answer: 21 ± 5.5 nM

Question: For B8, which Kd is on record?
Answer: 41 ± 10 nM

Question: Which Kd does the source give for B9 here?
Answer: 18.4 ± 1 nM

Question: B10 was tested. Which Kd did it give?
Answer: 8.25 ± 2.25 nM

Question: How did the Kd turn out when B11 was run?
Answer: 35 ± 16 nM

Question: Which Kd does the source give for B12 here?
Answer: 8.55 ± 3.25 nM

Question: How did the Kd turn out when B13 was run?
Answer: 81 ± 29 nM

Question: With B14 as the binder, how does the Kd read?
Answer: 27.4 ± 5.25 nM

Question: How did the Kd turn out when B15 was run?
Answer: ~52 nM

Question: With B16 as the binder, how does the Kd read?
Answer: 24.1 ± 3.95 nM

Question: How did the Kd turn out when B17 was run?
Answer: 30 ± 14.5 nM

Question: How did the Kd turn out when B18 was run?
Answer: ~27.2 nM

Question: With B19 as the binder, how does the Kd read?
Answer: 17.9 ± 0.9 nM

Question: B20 was tested. Which Kd did it give?
Answer: 28.5 ± 7.5 nM

Question: How did the Kd turn out when B21 was run?
Answer: 27.5 ± 8 nM

Question: For B22, which Kd is on record?
Answer: ~11 nM

Question: B23 was tested. Which Kd did it give?
Answer: 56 ± 17 nM

Question: Which Kd does the source give for B24 here?
Answer: 7.25 ± 0.95 nM

Question: How did the Kd turn out when B25 was run?
Answer: 28.5 ± 6.5 nM

Question: How did the Kd turn out when B26 was run?
Answer: 20.9 ± 3.9 nM

Question: B27 was tested. Which Kd did it give?
Answer: ~55 nM

Question: How did the Kd turn out when B28 was run?
Answer: 49 ± 14 nM

Question: How did the Kd turn out when B29 was run?
Answer: 15.6 ± 3.35 nM

Question: B30 was tested. Which Kd did it give?
Answer: 66.5 ± 11.5 nM

Question: How did the Kd turn out when B31 was run?
Answer: 21.7 ± 3.85 nM

Question: For B32, which Kd is on record?
Answer: 24.5 ± 5 nM

Question: For B33, which Kd is on record?
Answer: 22.9 ± 4.25 nM

Question: B34 was tested. Which Kd did it give?
Answer: 6.2 ± 0.5 nM
